According to article PMC3622925:

Target: Trichomonas vaginalis virus 1 strain UH9 coat protein (Trichomonas vaginalis virus 1 (TVV1), strain UH9)
Experiment: cryo-EM structure

“Trichomonas vaginalis virus 1 strain UH9 coat protein (natural protein)” was tested, and the stoichiometry N (subunits per capsid) was 120.
